The test addresses HLA-A*02:01 (Homo sapiens, UniProt P04439, D140Y/D185E/D98H/E176V/E277Q/G131W/G231S/I119V/I121R/I166T/I218V/L300P/L318F/N151K/N90K/P208A/P217A/Q86G/Q94H/R138H/R169H/T345S). The experiment in a line: MHC binding assay: UV-ligand exchange with β2m ELISA (peptide exchange yield). The following applies: binding to HLA-A*02:01 evaluated by peptide exchange yield (UV-ligand exchange, β2m ELISA). From the text:
Candidate peptides for T cell based therapies according to the present invention were further tested for their MHC binding capacity (affinity). The individual peptide-MHC complexes were produced by UV-ligand exchange, where a UV-sensitive peptide is cleaved upon UV-irradiation, and exchanged with the peptide of interest as analyzed. Only peptide candidates that can effectively bind and stabilize the peptide-receptive MHC molecules prevent dissociation of the MHC complexes. To determine the yield of the exchange reaction, an ELISA was performed based on the detection of the light chain (β2m) of stabilized MHC complexes. The assay was performed as generally described in Rodenko et al. (Rodenko et al., 2006).
96 well MAXISorp plates (NUNC) were coated over night with 2 ug/ml streptavidin in PBS at room temperature, washed 4× and blocked for 1 h at 37° C. in 2% BSA containing blocking buffer. Refolded HLA-A*02:01/MLA-001 monomers served as standards, covering the range of 15-500 ng/ml. Peptide-MHC monomers of the UV-exchange reaction were diluted 100 fold in blocking buffer. Samples were incubated for 1 h at 37° C., washed four times, incubated with 2 ug/ml HRP conjugated anti-β2m for 1 h at 37° C., washed again and detected with TMB solution that is stopped with […]. Absorption was measured at 450 nm. Candidate peptides that show a high exchange yield (preferably higher than 50%, most preferred higher than 75%) are generally preferred for a generation and production of antibodies or fragments thereof, and/or T cell receptors or fragments thereof, as they show sufficient avidity to the MHC molecules and prevent dissociation of the MHC complexes.
In the case of “63 (KLLPMVIQL; listed as Homo sapiens) [compound 63]”, the Peptide exchange entry was “+++ (≥50 = +++)”.

For the substance “64 (SLYAGSNNQV; listed as Homo sapiens) [compound 64]”, the Peptide exchange result is “++ (≥20% = ++)”.

As for “65 (SLSEKSPEV; listed as Homo sapiens) [compound 65]”, the Peptide exchange result is recorded as “++ (≥20% = ++)”.

Turning to “66 (AMFPDTIPRV; listed as Homo sapiens) [compound 66]”, the Peptide exchange entry is on record as “++ (≥20% = ++)”.

As to “67 (FLIENLLAA; listed as Homo sapiens) [compound 67]”, the Peptide exchange result was “+++ (≥50 = +++)”.

Turning to “68 (QLMNLIRSV; listed as Homo sapiens) [compound 68]”, the Peptide exchange entry was “+++ (≥50 = +++)”.

On to “69 (LKVLKADVVL; listed as Homo sapiens) [compound 69]”, for which the Peptide exchange entry was “++ (≥20% = ++)”.

Consider “70 (GLTEKTVLV; listed as Homo sapiens) [compound 70]”, for which the Peptide exchange entry is reported as “++ (≥20% = ++)”.

“71 (HMSGKLTNV; listed as Homo sapiens) [compound 71]”: the Peptide exchange entry is recorded as “++ (≥20% = ++)”.

With “72 (VLSTRVTNV; listed as Homo sapiens) [compound 72]”, the Peptide exchange result is on record as “++ (≥20% = ++)”.

“74 (GLAFLPASV; listed as Homo sapiens) [compound 74]”: the Peptide exchange entry is “++ (≥20% = ++)”.

Regarding “75 (ALLDGALQL; listed as Homo sapiens) [compound 75]”, the Peptide exchange result was “+++ (≥50 = +++)”.

As to “76 (FTAEFLEKV; listed as Homo sapiens) [compound 76]”, the Peptide exchange entry is listed as “+++ (≥50 = +++)”.

Take “77 (ALYGNVQQV; listed as Homo sapiens) [compound 77]”: the Peptide exchange entry is reported as “+++ (≥50 = +++)”.

With “79 (TVLEEIGNRV; listed as Homo sapiens) [compound 79]”, the Peptide exchange result was “++ (≥20% = ++)”.

Take “80 (VLTGQVHEL; listed as Homo sapiens) [compound 80]”: the Peptide exchange result was “+++ (≥50 = +++)”.

Consider “81 (ILAEEPIYI; listed as Homo sapiens) [compound 81]”, for which the Peptide exchange entry is recorded as “++ (≥20% = ++)”.

Regarding “82 (ILAEEPIYIRV; listed as Homo sapiens) [compound 82]”, the Peptide exchange entry is given as “+++ (≥50 = +++)”.

As to “83 (GLLENSPHL; listed as Homo sapiens) [compound 83]”, the Peptide exchange result is on record as “++ (≥20% = ++)”.

Regarding “84 (FLLEREQLL; listed as Homo sapiens) [compound 84]”, the Peptide exchange entry is given as “++++ (≥75% = ++++)”.

As for “85 (KLLDKPEQFL; listed as Homo sapiens) [compound 85]”, the Peptide exchange entry is “++ (≥20% = ++)”.

Turning to “86 (SLFSNIESV; listed as Homo sapiens) [compound 86]”, the Peptide exchange entry is listed as “+++ (≥50 = +++)”.

Take “87 (KLLSLLEEA; listed as Homo sapiens) [compound 87]”: the Peptide exchange result was “+++ (≥50 = +++)”.

Consider “88 (LLLPLELSLA; listed as Homo sapiens) [compound 88]”, for which the Peptide exchange result was “+++ (≥50 = +++)”.

Turning to “89 (SLAETIFIV; listed as Homo sapiens) [compound 89]”, the Peptide exchange entry was “+++ (≥50 = +++)”.

For “90 (AILNVDEKNQV; listed as Homo sapiens) [compound 90]”, the Peptide exchange result was “++ (≥20% = ++)”.

Turning to “91 (LLPSIFLMV; listed as Homo sapiens) [compound 91]”, the Peptide exchange entry is reported as “++ (≥20% = ++)”.

As to “92 (RLFEEVLGV; listed as Homo sapiens) [compound 92]”, the Peptide exchange result is “++++ (≥75% = ++++)”.

For “93 (RLYGYFHDA; listed as Homo sapiens) [compound 93]”, the Peptide exchange result is “++ (≥20% = ++)”.

Consider “94 (YLDEVAFML; listed as Homo sapiens) [compound 94]”, for which the Peptide exchange entry was “+++ (≥50 = +++)”.

With “95 (KLIDEDEPLFL; listed as Homo sapiens) [compound 95]”, the Peptide exchange entry is reported as “+++ (≥50 = +++)”.

In the case of “96 (ALDTTRHEL; listed as Homo sapiens) [compound 96]”, the Peptide exchange result is “++ (≥20% = ++)”.

For the substance “97 (KLFEKSTGL; listed as Homo sapiens) [compound 97]”, the Peptide exchange result is “+++ (≥50 = +++)”.

As for “98 (FVQEKIPEL; listed as Homo sapiens) [compound 98]”, the Peptide exchange entry is reported as “+++ (≥50 = +++)”.

Consider “99 (TLFGIQLTEA; listed as Homo sapiens) [compound 99]”, for which the Peptide exchange entry was “+++ (≥50 = +++)”.

For “100 (ALQSFEFRV; listed as Homo sapiens) [compound 100]”, the Peptide exchange entry is “+++ (≥50 = +++)”.

Consider “101 (SLLEVNEASSV; listed as Homo sapiens) [compound 101]”, for which the Peptide exchange result is “+++ (≥50 = +++)”.

Take “102 (GLYPVTLVGV; listed as Homo sapiens) [compound 102]”: the Peptide exchange result is “+++ (≥50 = +++)”.

For the substance “103 (YLADTVQKL; listed as Homo sapiens) [compound 103]”, the Peptide exchange entry is “++ (≥20% = ++)”.

Consider “105 (AMLASQTEA; listed as Homo sapiens) [compound 105]”, for which the Peptide exchange result is listed as “++ (≥20% = ++)”.

“106 (VLLGSVVIFA; listed as Homo sapiens) [compound 106]”: the Peptide exchange entry is “++ (≥20% = ++)”.

As for “107 (RVLPGQAVTGV; listed as Homo sapiens) [compound 107]”, the Peptide exchange result is “++ (≥20% = ++)”.

On to “108 (FIANLPPELKA; listed as Homo sapiens) [compound 108]”, for which the Peptide exchange entry was “+++ (≥50 = +++)”.

As to “109 (ILGSFELQL; listed as Homo sapiens) [compound 109]”, the Peptide exchange result is given as “+++ (≥50 = +++)”.

Consider “110 (QIQGQVSEV; listed as Homo sapiens) [compound 110]”, for which the Peptide exchange entry is listed as “++ (≥20% = ++)”.

For the substance “111 (AQLEGKLVSI; listed as Homo sapiens) [compound 111]”, the Peptide exchange entry is reported as “+++ (≥50 = +++)”.

For the substance “112 (ILAQDVAQL; listed as Homo sapiens) [compound 112]”, the Peptide exchange result is “+++ (≥50 = +++)”.

As to “113 (FLFLKEVKV; listed as Homo sapiens) [compound 113]”, the Peptide exchange result was “++ (≥20% = ++)”.

For the substance “114 (LLFPSDVQTL; listed as Homo sapiens) [compound 114]”, the Peptide exchange entry was “++ (≥20% = ++)”.

Consider “115 (ILHGEVNKV; listed as Homo sapiens) [compound 115]”, for which the Peptide exchange result is recorded as “++ (≥20% = ++)”.

With “116 (ALLSSVAEA; listed as Homo sapiens) [compound 116]”, the Peptide exchange result is “++ (≥20% = ++)”.

As to “117 (TLLEGISRA; listed as Homo sapiens) [compound 117]”, the Peptide exchange result was “++ (≥20% = ++)”.

For “119 (SLIEESEEL; listed as Homo sapiens) [compound 119]”, the Peptide exchange entry is “++ (≥20% = ++)”.

For “121 (ALYVQAPTV; listed as Homo sapiens) [compound 121]”, the Peptide exchange entry is recorded as “++ (≥20% = ++)”.

Take “122 (SIIDTELKV; listed as Homo sapiens) [compound 122]”: the Peptide exchange entry was “+++ (≥50 = +++)”.
